Test results reported in paper PMC3684052.
pKd: −log10 of the molar value.

What was measured:
[1] = molecular target: GST-integrin β1 fusion protein (residues 752 to 798), wild type (UniProt P05556); assay: SPR
[2] = molecular target: GST-KRIT1 (residues 170–198), wild type (human) (UniProt O00522); assay: SPR
Chain of GST-KRIT1 (residues 170–198), wild type (human) (O00522 170-198): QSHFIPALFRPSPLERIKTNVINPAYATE

Chain of GST-integrin β1 fusion protein (residues 752 to 798), wild type (P05556 752-798): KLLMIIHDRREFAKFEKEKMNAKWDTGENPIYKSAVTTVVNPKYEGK

ICAP1 (analyte of the surface plasmon resonance) (from UniProt O14713 1-200) (domain or fragment)
pKd [1]: 5.30 | pKd [2]: 5.91
